This assay addresses T1, BCMA (TNFRSF17) (human, UniProt Q02223 1-184, limits assumed).
T1 construct: Member of a commercial human plasma membrane protein array; the construct is not described
T1 sequence (looked up): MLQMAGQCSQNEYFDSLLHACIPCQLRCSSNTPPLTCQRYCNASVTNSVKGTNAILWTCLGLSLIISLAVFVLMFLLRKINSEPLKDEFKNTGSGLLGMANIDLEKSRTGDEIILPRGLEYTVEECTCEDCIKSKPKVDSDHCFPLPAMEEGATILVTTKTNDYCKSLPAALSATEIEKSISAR
As to the kind of experiment: commercial human plasma membrane protein array.

B1: anti-human BCMA single chain antibody variable fragment (scFv) (PI61) (scFv)
scFv: QVQLQESGGGVVQPGRSLRLSCAASGFTFSSYGMHWVRQAPGKGLEWVAVISYDGSNKYYADSVKGRFTISRDNSKNTLYLQMNSLRAEDTAVYYCGGSGYALHDDYYGLDVWGQGTLVTVSSGGGGSGGGGSGGGGSQSALTQPASVSGSPGQSITISCTGTSSDVGGYNYVSWYQQHPGKAPKLMIYDVSNRPSGVSNRFSGSKSGNTASLTISGLQAEDEADYYCSSYTSSSTLYVFGSGTKVTVL
notes: also called PI61 scFv
In the case of B1, the binding result is “binds”.
